One may read the stoichiometry N as a count of units in the complex or per binding partner. A word on the Kd: it is the constant that tells how readily two partners part at equilibrium. A high value points to lower affinity.

The chains are these.
B1: mouse SorCS2 mature extracellular segment (sSorCS2, residues 117-1072) (receptor)
chain: not shown
notes: SorCS2, mouse, residues 117-1072: the mature extracellular segment, without signal peptide and pro-peptide; Expressed from pUPE107.03 with a cystatin secretion signal peptide; For the unliganded crystal the protein was deglycosylated with EndoHf and treated with trypsin (limited proteolysis); also called SorCS2 ectodomain; wt sSorCS2; source: HEK293-ES (GnTI-) or HEK293-E, secreted, purified …

Series [1] deals with the molecule itself. In words: crystal structure; sSorCS2 mixed with proNGF 1:1.1, 1 mM calcium chloride; proNGF degraded to NGF in the drop; 0.225 M MES/bis-tris pH 6.6; 3.9 Å.
Series [2] concerns the target B1. In words: SPR; IBIS MX96; NGF, proNGF and proBDNF amine-coupled to a P-COOH SensEye sensor; wt and mutant sSorCS2 flowed as analyte; 25 mM HEPES pH 7.4, 150 mM NaCl, 0.005 % Tween 20; 25 °C; equilibrium binding, one site saturation model (two site saturation model for proBDNF). The settings on record: both partners purified. A general note: In SPR one partner is held on a chip, and binding of the other changes the refractive index at the surface.

Turning to B1, in series [1], the “stoichiometry N” value is 2.

B2: pro-brain-derived neurotrophic factor (proBDNF, residues 19-249, furin sites changed to AA) (ligand)
chain: APMKEVNVHGQGNLAYPGVRTHGTLESVNGPRAGSRGLTTTSLADTFEHVIEELLDEDQKVRPNEENHKDADLYTSRVMLSSQVPLEPPLLFLLEEYKNYLDAANMSMRVAAHSDPARRGELSVCDSISEWVTAADKKTAVDMSGGTVTVLEKVPVSKGQLKQYFYETKCNPMGYTKEGCRGIDKRHWNSQCRTTQSYVRALTMDSKKRIGWRFIRIDTSCVCTLTIKRGR
For B2, the affinity in series [2], expressed as Kd, was 69 nM.

The values above are taken from publication PMC6065357, “Structural insights into SorCS2–Nerve Growth Factor complex formation” (Nature Communications, 2018).
